Where two headings read alike, the source gives them in different places.
B1: H1H3325P (antibody, V domains shown)
VH: EVQLVESGGGLVQPGGSLRLSCAASGFTFNSFVMSWVRQAPGKGLEWVSAISGYGGSTYYADSMKGRFTVSRDNSKNTLYLQMNSLRAEDTAVYYCAKDHKDFYASGSYFNRDYYYGMDVWGQGTTVTVSS
VL: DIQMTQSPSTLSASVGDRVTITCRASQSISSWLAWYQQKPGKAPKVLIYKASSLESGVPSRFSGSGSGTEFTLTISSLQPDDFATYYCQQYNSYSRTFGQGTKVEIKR
B2: H2M3124N (antibody, V domains shown)
VH: EIQLIESGGDMVQPGGSLRLSCAASGISLNSYEMNWVRQTPGMGLEWISHISSSGTSIYYANSVKGRFTIFRDSAKNSLLLQMNSLRAEDTAIYYCARERYDHSGYYYLGMDVWGLGTTVTVSS
VL: DIQMTQSPSTLSASLGDRVTITCRASQNIDNWMAWYQQKVGKAPKLLIYRASTLETGVPSRFGGSGFGTEFTLTISSLQPGDFATYYCQEYNSYFRTFGQGTKVEIK
notes: also called H2aM3124N; H1M3124N
B3: H1H3330P (antibody, V domains shown)
VH: QVQLVESGGGVVQPGGSLRLSCAASGFTFSSYAMHWVRQAPGKGLEWVAIIWFDGSNEDYADSVKGRFTISRDNSKNMVYLQINSLRAEDTAVYYCARSANWNYEGGPLFDYWGQGTLVTVSS
VL: DIQMTQSPSSLSASVGDRVTITCRASQTISTFLNWYQQKPGKGPELLIYTASSLQSGVPSRFSGSGSGTDFALTISSLQPEDFATYYCQQNYNDPPTFGQGTRLEIKR
B4: H2M3123N (antibody, V domains shown)
VH: DVQLVESGGDFVQPGGSLRLSCAASGVAFNDYEMNWIRQAPGKRLEWISHIDSSGTIIYYADSVKGRFTISRDSAKNSLFLQMDSLRAEDTAVYYCARERYSHYGYYYFGMDVWGQGTTVTVSS
VL: DIQMTQSPSTLSASVGDRVTITCRASQNIDNWLAWYQQKTGKAPNLLIYKASTLESGVPSRFSGSGSGTEFTLTIISLQPDDFATYYCQEYNTYSRTFGQGTKVEIK
notes: also called H2aM3123N; H1M3123N
B5: H2M3121N (antibody, V domains shown)
VH: EVQLVESGGDLVQPGGSLRLSCAASGVTFRTYEMNWVRQAPGKGLEWISHISSSGDIIYYTKSVKGRFTISRDNAKNSLFLQMTSLRAEDTAVYYCARERYSQYGYYYFGMDVWGQGTTVTVSS
VL: DIQMTQSPSTLSASIGDRVTITCRASQNTDKWMAWYQQKAGKAPKLLIYKASILESGVPSRFSGSGSGTEFTLTISSLQPDDFATYYCQEYNTYFRAFGQGTKVETR
notes: also called H2aM3121N; H1M3121N

What was measured:
[1] = biological target: T1, Clostridium difficile toxin A, soluble full-length (TechLab) (Clostridium difficile, UniProt P16154 1-2710); test: cell-based or functional assay
[2] = biological target: T1, Clostridium difficile toxin A, soluble …; test: SPR Biacore T200, 37C, mAb capture
[3] = biological target: T2, C-term receptor Binding Domain (CBD) of toxin A (Clostridium difficile, UniProt P16154 1848-2710); test: SEC (Superose 6) of CBD and mAb mixture
T2 construct: also called CBD-A; recombinant CBD of toxin A

[4] = biological target: T3, CBD-toxin A-Fc (Clostridium difficile, UniProt P16154 1848-2710); test: SPR Biacore, CBD-A-Fc captured, 500 nM mAb flowed
T3 construct: also called CBD-A; C-term Toxin A

[5] = biological target: T4, CBD-toxin B-Fc (Clostridium difficile, UniProt P18177 1851-2366); test: SPR Biacore, CBD-B-Fc captured, 500 nM mAb flowed
T4 construct: also called CBD-B; C-term Toxin B

[6] = biological target: T3, CBD-toxin A-Fc; test: SPR Biacore, mAb captured, 100 nM CBD-A-Fc flowed
[7] = biological target: T3, CBD-toxin A-Fc; test: SPR Biacore, mAb capture and CBD-Fc capture formats
[8] = biological target: T1, Clostridium difficile toxin A, soluble …; test: SPR Biacore T200, 37C, mAb capture; remark: listed apart in the source
[9] = biological target: T5, Clostridium difficile toxin B, soluble full-length (TechLab) (Clostridium difficile, UniProt P18177 2-2366); test: SPR Biacore T200, 37C, mAb capture
T5 construct: also called tcdB

[10] = biological target: T4, CBD-toxin B-Fc; test: SPR Biacore, mAb capture and CBD-Fc capture formats
[11] = biological target: T1, Clostridium difficile toxin A, soluble …; test: cell-based or functional assay; remark: listed apart in the source

Row | Binder | Kd [2] | T½ [2] | koff [2] | kon [2] | binding result [3] | binding (RU) [4] | binding (RU) [5] | binding (RU) [6] | binding result [7] | IC50, Vero cell viability (neutralization), Trial 1, 32 pM Toxin A [1] | IC50, Vero cell viability (neutralization), Trial 2, 32 pM Toxin A [1] | Kd [8] | T½ [8] | koff [8] | kon [8] | Kd [9] | T½ [9] | koff [9] | kon [9] | binding result [10] | also measured
1 | B1 | 105 pM | 3.48 h | 5.51e-05 s⁻¹ | 527000 M⁻¹ s⁻¹ | no binding (tested: CBD at ~500 nM, CBD:Mab 1:5 and 1:20) | 3 RU | -8 RU | 17 RU | no binding | – | – | – | – | – | – | – | – | – | – | – | IC50, Vero cell viability (neutralization), Trial 4, 32 pM Toxin A [1]: 33 pM
2 | B2 | – | – | – | – | no binding (tested: CBD at ~500 nM, CBD:Mab 1:5 and 1:20) | 29 RU | – | 0 RU | no binding | 41 pM | 21 pM | 174 pM | 0.967 h | 0.000198 s⁻¹ | 1.14e+06 M⁻¹ s⁻¹ | ≤ 3.02 pM | 192 h | ≤ 1e-06 s⁻¹ | 331000 M⁻¹ s⁻¹ | no binding | –
3 | B3 | 547 pM | 1.42 h | 0.000137 s⁻¹ | 250000 M⁻¹ s⁻¹ | – | 515 RU | -4 RU | 441 RU | – | – | – | – | – | – | – | – | – | – | – | – | neutralization potency relative to control I [11]: ~20 fold; IC50, Vero cell viability (neutralization), Trial 3, 32 pM Toxin A [1]: 7 pM; IC50, Vero cell viability (neutralization), Trial 5, 25 pM Toxin A [1]: 7 pM
4 | B4 | – | – | – | – | no binding (tested: CBD at ~500 nM, CBD:Mab 1:5 and 1:20) | 23 RU | – | 1 RU | no binding | 65 pM | 24 pM | 481 pM | 0.317 h | 0.000593 s⁻¹ | 1.23e+06 M⁻¹ s⁻¹ | 1650 pM | 2.93 h | 6.54e-05 s⁻¹ | 39700 M⁻¹ s⁻¹ | no binding | –
5 | B5 | – | – | – | – | no binding (tested: CBD at ~500 nM, CBD:Mab 1:5 and 1:20) | 23 RU | – | 0 RU | no binding | 65 pM | 35 pM | 172 pM | 1.15 h | 0.000166 s⁻¹ | 969000 M⁻¹ s⁻¹ | 1240 pM | 2.53 h | 7.58e-05 s⁻¹ | 61100 M⁻¹ s⁻¹ | no binding | –
